± gives the uncertainty stated by the source.

The nature of this data set: amyloid nucleation score (Sup35N fusion, yeast selection) (log enrichment); library NNK1; higher = more nucleation; inactive = no reads after selection. An outline of the steps:
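Psi-negative yeast expressed Sup35N fused to peptides of 20 random codons. They were induced 24 hours with 100 μM copper sulfate, grown 7 days at 30°C without adenine and uracil, and their plasmid inserts from input and output were Illumina-sequenced. The nucleation score is the DiMSum log enrichment of output over input reads, centred on the mode score of non-aggregating sequences. Sequences with under 100 input reads were excluded.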

With CDNGPLLIVGVRHRTRACVT, the amyloid nucleation score stood at 0.861 ± 0.38. The result for LVHTDTNLVF reads “inactive”; that for GRFKWCGCNNTLWVGISRN, 1.9 ± 0.15; that for DRGMMCALVFYRHL, 0.691 ± 0.56. The figure for HMWSESQIVGRLYVYRNIVV is 0.747 ± 0.81; for SSIRNVTAICINGSRLINVL it is 1.1 ± 0.54.

The substance SCETVWYVFNSAIACFTFRR yielded an amyloid nucleation score of 4.18 ± 0.15. The figure for DFPVAIVDLRVCWSYLL is 0.526 ± 0.68; for LISLLGSISMGPCIVRVYN it is -0.259 ± 0.48.

Take SAGYYPVVLCALILEAEYQD: the amyloid nucleation score was -0.541 ± 0.61. The result for CEFLIFTFRVSGEVLLQSRA reads 0.265 ± 0.92. In turn, YLELLPAYRLFTGLVVLLMI gave an amyloid nucleation score of 0.736 ± 0.13.

On to SFCSFEF, for which the amyloid nucleation score came out at 0.858 ± 0.88. Take RLFLVEFIWNMR: the amyloid nucleation score amounted to 0.958 ± 0.71. The figure for TVVEVRGVEQRHGLNCTNPG is -0.05 ± 0.57; for CSNVGVCGMSIH it is 5.01 ± 0.052; for RLFYTRSDSGGVRLVVLAVG it is 0.003 ± 1.2. The figure for NVFLVRAYLMENVHFYDFMC is 4.54 ± 0.14; for SVVLCMNCGGCLMEIKGGGY it is 4.89 ± 0.096; for NYSYVTWNLFGQSPICSLWY it is 6.103 ± 0.049. The result for CPLSNGSVRVNDGATTLAWL reads -0.956 ± 2.1; that for FYYGSLPYCVTKRFRDFGNQ, 3.02 ± 0.18; that for SYSGTVCNRLRLVLVVDD, -0.098 ± 0.47. For the substance YRGLGFVERESRDRG, the amyloid nucleation score was -0.418 ± 0.8.

Substance IVGSVVRGMGLVIIRSTCFW yielded an amyloid nucleation score of 3.15 ± 0.18. The figure for LTNIYLVRMT is 5.26 ± 0.071; for YRWLLNRKTSSMSVFCNSLF it is “inactive”. The result for IQRKSITTWSPH reads 3.43 ± 0.2.

Turning to SHLCLAMVVRGV, the amyloid nucleation score came out at 0.507 ± 0.56. The figure for VFRGSWCRTNNVIPGLFNKA is 0.488 ± 0.4; for ETSPF it is -0.03 ± 0.76; for FSHAGD it is -0.494 ± 0.71. VSYKTGIWGVSCDIDGVY: the amyloid nucleation score is -0.182 ± 0.24. For the substance AYSVRICLDFGKNG, the amyloid nucleation score entry is “inactive”.

For LAGMMHAPVVLGLWSCDGDG, the amyloid nucleation score is -0.974 ± 2.4. The result for RTPFNVDPKPTDPRNTRCST reads 0.822 ± 0.93; that for VLIFAKFYELPGDRRFGTGW, 3.87 ± 0.11. As for TVLNDYWFSTHKLSIR, the amyloid nucleation score came out at 0.958 ± 0.48. The result for HFLVMITRL reads 5.15 ± 0.091; that for GIMTHVGRPKVTGCGRGKCT, -0.165 ± 1.6. With CVFVRVF, the amyloid nucleation score result was “inactive”. The result for SRCCRYLKHVRSIGSVQVAS reads 1.16 ± 0.32; that for KLIRYYRFACVMSFRVFYSF, “inactive”; that for VLCRINGVRS, 1.1 ± 0.97. The entry for HRSYHYMLLHTLEDRCRKN is “inactive”; for AVLSGRHWHTLYNSIALSEL it is 0.869 ± 0.45; for SLLTWFREYVDYTLYQWPGY it is -0.131 ± 0.76. As for FLTIYGLNPSDYVGKVRQRD, the amyloid nucleation score came out at 0.236 ± 0.34. The result for LNICGIWGGVVSEGARNVFY reads 0.063 ± 0.33.

Take YYCYLLTNHPNTNGSVAFRL: the amyloid nucleation score was found to be 0.934 ± 0.44.

Regarding YSSWVKLASLVDRDVPQYDW, the amyloid nucleation score entry is “inactive”. AEHLICLGYGQRWGNYTGLP displayed an amyloid nucleation score of 0.164 ± 0.62.

LHRRNSCSIYRLLGFCLLPI gave an amyloid nucleation score of 1.25 ± 0.6.

As for PFGGDFTF, the amyloid nucleation score was 0.187 ± 0.24. The result for LDFRGMALENKVLDFRVCSV reads 0.658 ± 0.3; that for LFNWVTSCSGTINGWKIKRH, 3.08 ± 0.12. The figure for LQPNLMEGAMSSGGTEEVTV is -0.565 ± 1.4; for VSRMGVGTIRTQVHGIRGGT it is -0.522 ± 1.6. In turn, MGRMS yielded an amyloid nucleation score of 0.22 ± 0.69. As for NPTNVSVWGTRGPGCVDYWY, the amyloid nucleation score was -0.304 ± 0.41.

Consider SKLLHMEWNQELDPSLSLLS, for which the amyloid nucleation score is -1.14 ± 0.66. The figure for RVHSIDENVWMVQGQNSRAG is 3.73 ± 0.16. The result for FRVVCVHSLSMGNVFNFDWR reads 4.77 ± 0.08. The figure for HIMYSLKASSHWSPIVFSHH is 0.669 ± 0.59; for GIEKLHDRITSLIFLSMGRR it is 1.8 ± 0.19; for SSGDGRRAP it is 0.335 ± 0.39. On to FSCGCIRYFSG, for which the amyloid nucleation score is -0.115 ± 0.91. The figure for DCPSS is 0.537 ± 0.29.

Consider CKVTSGDIQTYGVLGPQRPA, for which the amyloid nucleation score was -1.05 ± 1.1. The result for LYDCCYIFTYYGSRYLTQKS reads -0.091 ± 0.27; that for VNNRRRVSVHDLRDATPGTF, 0.099 ± 0.53.

Take SLPSNHTVLWTVWMMVFGAR: the amyloid nucleation score was -1.09 ± 0.96. The result for CPRPYDRSALSRKLY reads 0.713 ± 0.32; that for VVPPRTDSE, -0.364 ± 0.46; that for NSHRNSWSYMRHYSQSLMC, 0.227 ± 0.74. The figure for NVSVENLGYTLSIPSSMICS is 0.319 ± 0.23; for VLNEAYYDLYVYSHVSFSVL it is -0.248 ± 0.42; for YLIKCTTIAGRTGYSVTMRD it is -0.341 ± 1. The result for FRSVGVYAISNLYGHSRYFS reads -0.533 ± 0.42. With LDIVWVDSVIVISLMMLTYC, the amyloid nucleation score was 0.199 ± 0.39. ALLCFLWCRMYGTFSTSCVL came in with an amyloid nucleation score of 0.315 ± 0.85. The result for LCGTSGCSIRNLV reads 0.026 ± 0.46; that for HYVFRHAWDSSFDVNVGLAQ, 0.564 ± 0.9; that for ADTLFPLDHPVINFSPFIVL, 5.789 ± 0.05. The figure for LDEYINNEDSMFLCGILLSS is 0.2 ± 0.3; for FSFSIAMVNLVEDATVDCAG it is -0.048 ± 0.31; for ILRQIDIDATYVIFLEMSRL it is 5.854 ± 0.047. With RVWYCRGMCRP, the amyloid nucleation score was -0.239 ± 0.93. In the case of SAGAYGVRGRGSTLMVVFEW, the amyloid nucleation score is -0.066 ± 0.54.

Consider IRRATF, for which the amyloid nucleation score is 0.421 ± 0.84. The result for ICSNGRARPGNMSV reads -0.047 ± 1.7; that for AGLPRSGSIQRDYREKVWAA, -0.194 ± 1.3; that for LMISGPYWR, -0.142 ± 0.56. The figure for YERIPFLDSGTYGIYDWTAR is -0.372 ± 0.3. In turn, AVRVLPSLNVGAGMRQVVFT showed an amyloid nucleation score of 0.693 ± 0.5. NNTFIMLIF: the amyloid nucleation score is 6.98 ± 0.083. The result for WNMLPSIPGDRGWLDGVPVV reads -0.45 ± 0.39; that for LKELYG, 0.303 ± 0.65. The figure for LDVFICTADHTVRYLHHTAV is 1.08 ± 0.66; for NSGEEYVRVEGNCAFKSLSC it is 0.416 ± 0.15. The figure for HVTMKMIASSTMLDQHSWAR is -0.065 ± 0.32; for LKNSRYSKLFIESMTWWLVY it is 0.087 ± 0.16; for LRSCMRGGRKYRDS it is -0.903 ± 0.58.

KTWLIG came in with an amyloid nucleation score of 0.109 ± 0.54. The figure for VPTCMRVYIRGNSHNGMLAA is 1.1 ± 0.4; for QGTRGRCGFSRDEVECVVRR it is -0.673 ± 1. The substance RAMCKNQCSYVMR came in with an amyloid nucleation score of 0.003 ± 0.37. The result for GFRPEMHGV reads “inactive”; that for ERVLYIGFYTYVDNCFRLLK, -0.12 ± 0.34. Regarding TSLWCQLRKFNYI, the amyloid nucleation score was -0.181 ± 0.26. CGWRSLVVFSFDLDAS had an amyloid nucleation score of 0.876 ± 0.47. In turn, VKFIGYFLRNTSSSSCTSDP gave an amyloid nucleation score of 0.097 ± 0.58. The figure for TVVESRTPILVYFMGCRVTY is 3.31 ± 0.11; for MVVFRSY it is -2.07 ± 1.9; for RGFQTKSKGLARRSMYKCWE it is -0.275 ± 0.31. The figure for KIGLPGLCVW is 0.063 ± 0.54; for FFILW it is -0.75 ± 1.2.

Consider NIHVSKVGGLGTNLCYARNA, for which the amyloid nucleation score amounted to 1.77 ± 0.51.

On to KVLLIRWDLLC, for which the amyloid nucleation score is 0.291 ± 0.46. Consider WMLVRAACLGIKRKNG, for which the amyloid nucleation score stood at 0.759 ± 0.51. The substance VTACYYSISFCVRGAMYGYV came in with an amyloid nucleation score of 1.38 ± 0.33.

Turning to SVRVHFMVRHGLGVRLSASD, the amyloid nucleation score came to 1.61 ± 0.16. The result for MPIVKLTWLYTGVGAKPQVS reads 0.211 ± 0.26; that for NCLVAFYLKGYSCWWRFIIC, 1.53 ± 0.52; that for ISLCCTSTYLTVSYGTDRS, 6.487 ± 0.061. The result for CEAMVLKGCAEAVQYRATDS reads -0.23 ± 1.1; that for IFSPVSCDMVTDGMGTSCWY, 0.144 ± 0.9; that for IEDAALRSKEPGFVQHNYSS, 4.17 ± 0.077. In the case of FWLCRYTIGSRLLFVVQTST, the amyloid nucleation score came out at 0.986 ± 0.65.

For FVSVWDILL, the amyloid nucleation score is -0.049 ± 0.27. On to RKAIFTSFSQ, for which the amyloid nucleation score entry was “inactive”. For the substance FTKFRYRTLINSYNFWGTGA, the amyloid nucleation score was -0.115 ± 1.4. The result for RFRFMLVFSNLSLL reads -0.022 ± 0.53.

As for NFPVVW, the amyloid nucleation score is 0.286 ± 0.28.

KMTCSPSH: the amyloid nucleation score worked out at 0.867 ± 0.88.

Turning to QAVRDVRLCN, the amyloid nucleation score was -0.073 ± 0.61.

Regarding DRWLSM, the amyloid nucleation score is -0.025 ± 0.51. Regarding DNYGCYCL, the amyloid nucleation score came out at 0.802 ± 0.72. The result for IYNIVGSLMSSAVFPGQSIS reads -1.38 ± 1.2.

The substance RISSVT registered an amyloid nucleation score of 0.17 ± 0.86.

The record behind these values is the supplement of paper PMC12042874.
